# Measurements from PMC5700813, “A recombinant BBSome core complex and how it interacts with ciliary cargo” (eLife, 2017).
# Where “and” joins values, the source holds several entries; their conditions need not be identical. Equal values may be shown once.
# Experiment: Solubility of purified core BBSome
# Type: physicochemical
# Details: purified 6mer core BBSome
# Method: The 6mer core BBSome could readily be purified in milligram quantities, and is soluble up to concentrations higher than 150 µM (>50 mg/ml). A single Strep affinity purification yielded almost pure complex with no obvious imbalance in the stoichiometry of components. The complex eluted as a single entity in all subsequent purification steps (Figure 1—figure supplement 3E), and was even resistant to high salt washes of up to 2.5 M NaCl, consistent with a previous study where the native BBSome was eluted with high salt concentrations from an Arl6 affinity column ([Jin et al., 2010]). The complex elutes in gel filtration with an apparent molecular weight of ~400 kDa, in acceptable agreement with the expected theoretical mass of 336.4 kDa (Figure 1—figure supplement 3C,D), but less consistent with it being a dimer.
substance,measurement,value
"6mer core BBSome: recombinant human subcomplex composed of BBS1, 4, 5, 8, 9 and 18",soluble up to concentration,higher than 150 µM and > 50 mg/ml
